Our source for the protein stability index values is the supplement of paper PMC10567573.

The nature of this data set: protein stability index of a GFP-peptide fusion (GPS, HEK-293T) (PSI 1-6); higher = more stable. To be noted: c terminus: a fixed tail appended.

± gives the standard deviation.
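Further: 24-mer peptide tiles fused after GFP, lentivirally expressed, FACS-sorted into six equal bins by GFP/DsRed ratio, decoded by Illumina sequencing, PSI is the read-weighted mean bin number.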

As for SLVGNLGISGTTTKKGDLQWNAGE [SNAP91], the protein stability index (treatment: DMSO) amounted to 3.54 ± 0.39 and the protein stability index (treatment: MLN4924 1 uM, 8 h) was 3.62 ± 0.23.
In turn, SNMKSRYTTEFHELEKIGSGEFGS [WEE1] registered a protein stability index (treatment: DMSO) of 3.9 ± 0.31 and a protein stability index (treatment: MLN4924 1 uM, 8 h) of 4.04 ± 0.19.
The corresponding values for SNSQPTNESHSIKAILKNISVLAF [SLC29A1] are 2.45 ± 0.46 and 2.43 ± 0.29.
On the same counts, the results for SNVGTAISKKFGDMSYSIRHSISM [TPD52L1] are 2.19 ± 0.49 and 2.26 ± 0.45.
On the same counts, the results for SPFSGSLHAPPAFYSTSSGLANGL [VENTX] are 2.89 ± 0.048 and 2.96 ± 0.17.
In the case of SPGKQPGENSDCHRDSSQAIPITE [ZNF8], the protein stability index by setting is: (treatment: DMSO) 5.4 ± 0.17; (treatment: MLN4924 1 uM, 8 h) 5.429 ± 0.041.
In the case of SPNPFPEISRGEYLYTYDSQITDS [ZNF8], the protein stability index came to 4.08 ± 0.17 (treatment: DMSO) and 4.35 ± 0.38 (treatment: MLN4924 1 uM, 8 h).
For the sequence SPPGSTKRRKSMSGASPKESTNPE [CDC25A], the protein stability index was determined as 5.47 ± 0.11 (treatment: DMSO) and 5.4 ± 0.21 (treatment: MLN4924 1 uM, 8 h).
Regarding SPSGAALPLPLSLAPPPLPLPAAA [ZBTB22], the protein stability index came to 3.92 ± 0.25 (treatment: DMSO) and 4.2 ± 0.29 (treatment: MLN4924 1 uM, 8 h).
As for SQEPDPVQRLQAYTATEQEMQQQM [TRIM14], the protein stability index runs as follows: (treatment: DMSO) 5.39 ± 0.15; (treatment: MLN4924 1 uM, 8 h) 5.17 ± 0.14.
The corresponding values for SQFSGTLMRTCERLVKEGRFVPSN [PPTC7] are 3.12 ± 0.17 and 3.04 ± 0.4.
The corresponding values for SQPATPTPLQSRTSIVQAAAGGVP [PDLIM7] are 4.6 ± 0.25 and 4.6 ± 0.19.
SQTDRGASAGKRRCFWLGMEGLET [SDE2]: the protein stability index was determined as 2.87 ± 0.45 (treatment: DMSO) and 2.96 ± 0.14 (treatment: MLN4924 1 uM, 8 h).
On the same counts, the results for SREMLQQSKILKVIRKNIVKKCLE [HSP90AB1] are 2.56 ± 0.31 and 2.42 ± 0.57.
The corresponding values for SRFSSSTEQSSASRLMRRHKRRRR [DVL3] are 5.17 ± 0.084 and 5.257 ± 0.022.
The corresponding values for SRGACTSHDPQSSRGSRRRRRQRS [KCNA4] are 5.39 ± 0.4 and 5.53 ± 0.32.
For SRGTSQTPNASSPGNPTALANGTV [LPCAT4], the protein stability index is, setting by setting: (treatment: DMSO) 4.73 ± 0.051; (treatment: MLN4924 1 uM, 8 h) 4.77 ± 0.068.
Consider SRKKPIWNVLMWTSLFLGNGVLLC [SOAT1], for which the protein stability index is, setting by setting: (treatment: DMSO) 2.67 ± 0.81; (treatment: MLN4924 1 uM, 8 h) 2.73 ± 0.61.
The corresponding values for SRRLQLGSEENGRYFSLSLMSGAL [PCDHGC5] are 2.27 ± 0.4 and 2.3 ± 0.35.
Consider SRTVRQFQFTDWPEQGVPKSGEGF [PTPRD], for which the protein stability index (treatment: DMSO) was 3.88 ± 0.25 and the protein stability index (treatment: MLN4924 1 uM, 8 h) was found to be 4.02 ± 0.68.
For SRVNNASYCPHCGEESSKAKEVTI [EHMT1], the protein stability index is, setting by setting: (treatment: DMSO) 3.39 ± 0.14; (treatment: MLN4924 1 uM, 8 h) 3.37 ± 0.32.
The corresponding values for SSCTHVTGNYRKGNAHLGYSLVTH [ADAMTSL2] are 2.92 ± 0.7 and 2.77 ± 0.42.
In turn, SSEAFHNYMNAAMVHINRALKLII [RTN3] had a protein stability index (treatment: DMSO) of 2.62 ± 0.46 and a protein stability index (treatment: MLN4924 1 uM, 8 h) of 2.06 ± 0.38.
The corresponding values for SSFSRPLGYPYVNSVSSHASSPYI [DLX1] are 2.62 ± 0.18 and 2.79 ± 0.51.
Turning to SSGCFMEYLENQVIKDKDDSVDAQ [RNF180], the protein stability index came out at 4.59 ± 0.21 (treatment: DMSO) and 4.63 ± 0.19 (treatment: MLN4924 1 uM, 8 h).
The corresponding values for SSKSRAAPSPQEALVRLRETEEML [CHMP4C] are 2.79 ± 0.58 and 3.45 ± 0.81.
As to SSPPQGASPVPESSLTADLLSVDA [SNAP91], the protein stability index is 5.28 ± 0.18 (treatment: DMSO) and 5.34 ± 0.16 (treatment: MLN4924 1 uM, 8 h).
On the same counts, the results for SSPQGKSGPEAARAGGWVSGEEFY [PKD2L1] are 4.51 ± 0.2 and 4.54 ± 0.17.
On the same counts, the results for SSSASYGGGFGGGSCQLGGGRGVS [KRT13] are 3.71 ± 0.65 and 3.94 ± 0.36.
On the same counts, the results for SSSKGTIRLCDMRASALCDRHTKF [PPP2R2B] are 3.01 ± 0.048 and 3.14 ± 0.078.
Turning to SSSYAGQFRVIGPRHPIRALVGDE [MOG], the protein stability index is, setting by setting: (treatment: DMSO) 3.54 ± 0.31; (treatment: MLN4924 1 uM, 8 h) 3.48 ± 0.32.
On the same counts, the results for SSVQSYPGSASLAQSRLEDPGQDL [DLX1] are 4.89 ± 0.28 and 5.09 ± 0.19.
The corresponding values for STATSITLTWDSGNPEPVSYYIIQ [PTPRD] are 2.83 ± 0.59 and 2.9 ± 0.65.
The corresponding values for STDIGALMYPSYTFSGDVQLAQDD [MMP1] are 4.9 ± 0.13 and 4.74 ± 0.28.
With STLVEVTLGEVPAAESPDPPQSPQ [MAGEA3], the protein stability index by setting is: (treatment: DMSO) 5.39 ± 0.14; (treatment: MLN4924 1 uM, 8 h) 5.27 ± 0.17.
The corresponding values for SVKKQGETVADVRTLPNASTVDNI [MLH1] are 5.12 ± 0.12 and 5.25 ± 0.14.
